Laboratory results as given in the nanobody polyreactivity screen of Harvey et al. (2022).

Test: yeast display, Sf9 membrane polyspecificity reagent, FACS + sequencing; frameworks hold sequencing errors
How it was run: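 Polyreactivity labels are assigned by the sorting gate from which each nanobody was recovered. The gates were low and high (top ~1%), set on anti-HA fluorescence for expression and streptavidin fluorescence for reagent binding. Before sorting, galactose-induced (36–48 hours) yeast display cells were stained for 1 hour at 4 °C with 10% biotinylated, detergent-solubilized Sf9 membrane reagent.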

Sequence | polyreactivity (PSR sort gate)
QVQLVESGGGLVQAGGSLRLSCAASGGTVTYNAMGWYRQAPGKERELVAAITNGGGSTYYADSVKGRFTISRDYAKNTVYLQMNSLKPEDTAVYYCAARWWYYYTEYDYWGQGTQVTVSS | low polyreactivity
QVQLVESGGGLVQAGGSLRLSCAASGITLYDNAMGWYRQEPGKERELVAAINVNDVSTYYADSVKGRFTISRDNAKNTVYLQMNSLKPEDTAVYYCAADSLYYGIGYWVVRYDYWGQGTQVTVSS | low polyreactivity
QVQLVESGGGLVQAGGSLRLSCAASGSIFGANTMGWYRQAPGKERELVAGITSGARTYYADSVKGRFTISRDNAKNTVYLQMNSLKPEDTAVYYCAADTWKVFGVDYWGQGTQVTVSS | high polyreactivity
QDQLVESGGGLVQAGGSLRLSCAASGSTFLTYAMGWYRQAPGKERELVAAISKTGASTYYADSVKGRFTISRDNAKNTVYLQMNSLKPEDTAVYDCAAGRYTSYSPRYYYWGQGTQVTVSS | high polyreactivity
QVQLVESGGGLVQAGGSLRLSCAASGFTFSTYAMGWYRQAPGKERELVAAISRSGGSTYYADSVKGRFTISRDNAKNTVYLQMNSLKPEDTAVYYCNAEGPSYYYIIYDYWGQGTQVTGSS | high polyreactivity
QVQLVESGGGLVQAGGSLRLICAASGSIFYRYTMGWYRQAPGKERELVAAISSRGGSTYYADSVKGRFTISRDNAKNTVYLQMNSLKPEYTAVYYCAARFSYWAPSKGYGYWGQGTQVTVSS | high polyreactivity
QVQLVESGGGLVQAGGSLRLSCAASGGTIAPYAMVWYRQAPGKERELVATISYSGTSTNYADSVKGRFTITRDNAKNTVYLQMNSLKPEDTAVYYCYAVLYARQRDRWARYDYWGQGTQVTVSS | high polyreactivity
QVQLVESGGGLVQAGGSLRLSCAASGRTFVSYVMGWYRQAPGKERAFVAAISRSGGNTYYADSVKGRFTMSRDNAKNTVYLQMNSLKPEDTAVDYCAAKLGPLVYDHDYWGQGTQVTVSS | high polyreactivity
QVQLVESGGGLVQAGGSLRLSCAASGRIISRYAMGWYRQAPGKERELVATITWSTTSTYYADSVKGRFTISRDNAKNTVYLQMNSLKPEDTAVYYCAASIIPGFRRDPFGYWGQGTQVTVSS | low polyreactivity
QVQLVESGGGLVQAGGSLRLSCAASGFTFGNNGMGWYRQAPGKERELVASISGGGDSTYYADSVKGRFTISRDNAKYTVYLQMNSLKREDTAVYYCAADYRQEPGYTGYYYWGQGTQVTVSS | low polyreactivity
QVQLVESGGGLVQAGGSLRLSCAASGITFGYYAMGWYRQAPGKERELVASITSGGSTNYADSVKGRFTISRDNAKNTVYLQMNSLKPEDTAVYYCAKRYYRQYDYWGQGTQVTVSS | low polyreactivity
QVQLVESGGGLDQAGGSLRLSCAASGSIFGFYAMGWSRQAPGKERELVAAITWRGGSTYYADSVKGRFTISRDNAKNTVYLQMTILKPEDTAVYYCAATSARRQTYNFAKYDYWGQGTQVTLSS | low polyreactivity
QDQHVDSGGGLVQAGGSLRLSCAASGFIFPQNAMGWYRQAPGKERELVAAISKRGGSTYYADSVKGRFTISRDNAKNTVYLQMNSLNPEDTAVYYCAVRYYFYRPGGYDYWGQGTQLTVSS | high polyreactivity
QVQLVESGGGLVQAGGSRRIICAASGGTFYYYAMGWYRQAPGKERELVAAITWSGASTRYADSVKGRFTISRDNAKNTVYLQMNSLKPEDTAVYYCAARRVRPLVTYGYWGQGTQLTVSS | high polyreactivity
QVQLVESGGGLVQAGGSLRLSCAASGRTFTSNAMGWSRQAPGKERELVAAIDDGGSTNYADSVKGRFTISRDNAKNTVYLQMNSLKPEDTAVYYCNAPITWQYRGFRRRFDYWGQGTQVTVSS | low polyreactivity
QVQLVESGGGLVQAGGSLRLSCAASGIIFSPYAMGRYRQAPGKERELVAAITYSGDTTYYADSVKGRFTISRDNAKNTVYLQMNSLKPEDTAVYYCAVEDAGQGGDYWGQGTQVTVSS | low polyreactivity
QVQLVESGGGLVQAGGSLRLICAASGSIFITYAMGWSRPAPGKERELVAAIRDSGDRTYYADSVKGRFTISRDNAKNTVYLQMNSLKPEDTAVYYCNARWQERLKYDYWGQGTQVTVSS | low polyreactivity
QVQLVESGGGLVQAGVSLLISCAASGSTFLLNTMGWYIQAPGKERELVAAISSITGDTYYADSVKVRFTISRDNAKNNDYLQMNSLKPEDTAVYYCAARYYLSSQGWTYDYWGQGTQVTVSS | low polyreactivity
QVQLVESGGALVQAGGSLRLSCAASGFFIFTYAMGWYRQAPGKERELVAAISSRGGSTYYADSVKGRFTISRDNAKNTVYLQMNRLKPEDTAVYYCAAQAYGRYPYGYWGHGTQVTVSS | high polyreactivity
QVQLVESGGGLDQAGGSLRLSCAASGRTFTHNVMGWYRQAPGKEMELVAGISSTGGSTYYADSVKVRFTISRDNAKNTVYLQMNSLKPEDTAVYYCAKQRRSFYDFFHYDYWGLGTQVTVSS | low polyreactivity
QVQLVESGGGLVQAGGSLRLSCAASGFIFGYNAMGWYRQAPGKERELVAAIRAGDGSTYYADSVKGRFTISRDNAKNTVYLQMNSLKPEDTAVYYCAAAWRQSGYRYGYWGQGTQVTVAS | high polyreactivity
QVQLHESAGGLVQAGGSLRLRCSASGYISCDASRGWYRQAPGKERELAASITKGSSTNYADSVKGRFTIRDNAKNTVYLQMNRLKPEDTAVCYCAVTYPYWGDYTYWGQGTQVTVSS | low polyreactivity

Sequence | polyreactivity (PSR sort gate)
QVQLVESGGGLVQAGGRLRLSCAASGSIFGFYAMGWYRPAPGKERELVAGISVSDGSTYYADSVKGRFTISRDNAKNTVYLQMNSLKPEDTAVYYCAASPRGSYGYYYWGQGTQVTVSS | low polyreactivity
QVQLVESGGGLVQAGGSLRLSCAAWSIFYLNAMGWYRQAPGKERELVAAISSAGSTYYADSVKGRFTISRDNAKNTVYLQMNSLKPEDTAVYYCAAYWYDSPGVTEIWYDYWGQGTQVTVSS | low polyreactivity
QVQLVESGGGLVQAGGSLRLSCAASGITFAGYAMRWYRQAPGKERELVASMTWGGGRTYYADSVKRRFTISRDNAKNTVYLQMNSLKPEDTAVYYCATRRRPQYNKYDYWGQGTQVTVSS | high polyreactivity
QVQLVESGGGLVQAGGSLRLSCAASGSTFDTYAMGWYRQAPGKERELVAAISSGGSTNYADSVKGRFTISRDNAKNTVYLQMNSLKPEDTAVYYCADSYKSVFPVYGTLDEYWGQGTQVTVSS | low polyreactivity
QVQLVESGGGLVQAGGSLRLICAASVSTFRDHAMGWYRQAPAKERDLVAAIDIDSSTYYADSVKGRFTISLDNAKNSVYLHMNSLKPEDTAVYYCNKDASGGTTTEVDYWGQGTQVTVSS | low polyreactivity
QVQLVESGGGLVQAGGSLRLSCAASGFTFAWYAMGWYRQAPGKERELVAAITSSGGSTYYADSVKGRFTISRDNAKNTVYLQMNSLKPEDTAVYYCAARPWIWARAGYYWGQGTQVTVSS | high polyreactivity
QVQLVESGGGLVQAGGSLRLSCAASGSIFQLNAMGWYRQAPGKERELDAAITSGGSTYYADSVKGRFTISRDNAKNTVYLQMNSLKPEDTAVYYCAAYYLYTTPTSEWLSGYDYWGQGTQVTVSS | low polyreactivity
QVQLVESGGGLVQAGGSLRLSCAASGIIFDPYAMGWYRQAPGKERELVADIDNASSTYYADSVKGRFTISRDNAKNTVYLQMNSLKPEDTAVYYCTADLWYGGEYWGQGTQVTVSS | low polyreactivity
QVQLVDSGGGLVQAGGSLRLSCPASGSTFQRYAMGWYRQAPGKERELVAAISSSGVRTYYADSVKGRFTISRDNAKNTVYLQMNSLKPEDTAVYYCATGYIFRYRQSAYDYWGQGTQVTVSS | high polyreactivity
QVQLVESGGGLVQAGGSLRLSCAASGLTLHGNAMGWYSQAPGKERGLVATITSSGGSTFYADSVKGRFTISRDNAKNTVSLQMNSLKPEDTAVFYCNADAPYSDDYYVRFDYWGQGTQVTVSS | low polyreactivity
QVQLVESGGGLVQAGCSLRLSFAASGRTLVPYSMGWYRQAPGKERELVAAKSSGGSTNYADSVKGRFTISRDNAKNTVYLQMNSLKPEDTAVYSCAAYDSVQKYWILGFDYWGQGTQVTVSS | low polyreactivity
QVQLVESGGGLVQAGGSLRLSCAASVRTYGFNTMGSYRQAPGKERELVAANTTSGGSTYYADSVKGRFTISRDNAKNTVYLQMNSLKPDDSAVYYCAKDYYSKHFPIYEYWGQGTQVTVSS | low polyreactivity
QVQLVESGGGLVQAGGSLRLRCAASGLIFPVYAMGWYRQEPGKEREFVAAITYDGGNTYYADSVKGRFTISRDNAKNTVYLQMNSLKPEDTAVYYCNRRYPGPDSFEHYYYYRYDYWGQGTQVTVSS | low polyreactivity
QVHLVESGGGLVQAGGSLRLSCAASGIIFRRYAMGWYRQAPGKERELVAAISSRGGSTYYADSVKRRFTISRDNAKNTVYLQMNSLKPEDTAVYYCAKGFSGTGGSGDFGYWGQGTQVTVSS | high polyreactivity
QVQLVESGGGLVQAGGSLRLSCAASGSTLGYYAMGWYRQAPGIVRELVAAISWSGGRTYYADSVKGRFTISRDYAKNTVYLQMKSLKPEDTAVYYCNALYRTHYTGSVYYSWGQGTQVSVSS | high polyreactivity
QVQLEESGGGLFQAGGSLRLSCAASGSTITRYAMGCYRQAPGKEREIVAVISRSGGSTYYADSVKGLFTISRDNAKNTVYLQINSLKPEDTAVYYCAAKYYGGRRSPYSYGYWGQGTQVTVSS | high polyreactivity
QVQLVESGGGLVQAGGSLRLSCAASGRTFQKNTMGWYRQAPGKERELVAAIDYSATTTYYADSVKGRFTISRDNAKNTVYLQMNSLKTEDTAVYYCAARWSYPRWEFDYWGQGTQVTVSS | high polyreactivity
QVQLVESGGGLVQAGGSLRLSCAASGRTFSWNAMGWYRQAPGKERELVAAISNSGGSTYYADSVKGRFTISRDNAKNTVYLQMNSLKPEDTAVYYCAVYRYYGFSLWYDYWGQGTQVTVSS | low polyreactivity
HYHLVESGGGLVQAGGSLRLSCAASAFTFVQYAMGWYRQAPGKERELVATISKSGGITYYADSVKGRFTISRDNAKNTVYLQMNSLKPEDTAVYYCAAAWYYSSRGFHATWGHDYWGQGTQVTVSS | low polyreactivity
QVQLVESGAGLVRAGGSLRISCAASGNIYGANTMGWYRQAPGKERELDATITWSGGDTYYADSVKGRFTISRDNAKNSVYLQMNSLKPEDTAVYYCATRRFRYRPPFKYDYWVQGTQVTVSS | low polyreactivity
QVQLVESGGGLVQAGGSLRLSCAASGRIFTWNGMGWYRQATGKERELVAAITSGGRTYADSVKGRFTISRDNAKNTVYLQMNSLKPEDTAVYYCAADVRRRYIWYDYWGQGTQVTVSS | high polyreactivity
